Source: paper PMC12205646

Target: Hsp90-CYF61 homodimer (used as WT in the ATPase assays) (S. cerevisiae) (UniProt P02829)
Chain of UniProt P02829 (P02829 whole entry): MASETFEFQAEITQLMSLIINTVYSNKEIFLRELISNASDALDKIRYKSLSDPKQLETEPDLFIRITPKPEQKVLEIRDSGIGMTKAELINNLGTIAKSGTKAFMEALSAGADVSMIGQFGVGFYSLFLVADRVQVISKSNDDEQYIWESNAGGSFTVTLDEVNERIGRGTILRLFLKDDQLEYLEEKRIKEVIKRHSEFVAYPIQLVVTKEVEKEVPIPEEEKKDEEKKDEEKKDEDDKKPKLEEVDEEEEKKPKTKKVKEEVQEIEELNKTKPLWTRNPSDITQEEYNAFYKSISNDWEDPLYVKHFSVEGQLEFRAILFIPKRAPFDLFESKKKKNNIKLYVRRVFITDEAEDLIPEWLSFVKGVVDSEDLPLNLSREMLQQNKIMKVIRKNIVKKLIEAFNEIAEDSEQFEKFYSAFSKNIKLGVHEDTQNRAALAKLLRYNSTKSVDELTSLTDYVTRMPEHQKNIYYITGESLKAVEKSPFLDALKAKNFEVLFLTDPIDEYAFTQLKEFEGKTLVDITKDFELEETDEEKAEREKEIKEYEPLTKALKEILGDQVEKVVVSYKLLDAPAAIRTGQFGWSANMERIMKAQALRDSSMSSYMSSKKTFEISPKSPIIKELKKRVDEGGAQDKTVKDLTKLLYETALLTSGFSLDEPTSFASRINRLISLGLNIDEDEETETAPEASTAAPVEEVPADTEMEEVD

- stimulation of Hsp90 ATPase activity by Aha1 (ATP-regenerating coupled enzyme assay; 6 uM Aha1, 2 uM Hsp90 dimer): 20 fold
B1: Aha1 (activator of Hsp90 activity 1) cochaperone (natural protein)
chain: MVVNNPNNWHWVDKNCIGWAKEYFKQKLVGVEAGSVKDKKYAKIKSVSSIEGDCEVNQRKGKVISLFDLKITVLIEGHVDSKDGSALPFEGSINVPEVAFDSEASSYQFDISIFKETSELSEAKPLIRSELLPKLRQIFQQFGKDLLATHGNDIQVPESQVKSNYTRGNQKSSFTEIKDSASKPKKNALPSSTSTSAPVSSTNKVPQNGSGNSTSIYLEPTFNVPSSELYETFLDKQRILAWTRSAQFFNSGPKLETKEKFELFGGNVISELVSCEKDKKLVFHWKLKDWSAPFNSTIEMTFHESQEFHETKLQVKWTGIPVGEEDRVRANFEEYYVRSIKLTFGFGAVL
